{"source": "patent US20100291074", "key": {"[1]": {"molecular_target": "Aβ (amyloid beta peptide, length and aggregation state not specified; ˜4 kDa band) (UniProt P05067)", "sequence (P05067 whole entry, looked up, tested part not stated)": "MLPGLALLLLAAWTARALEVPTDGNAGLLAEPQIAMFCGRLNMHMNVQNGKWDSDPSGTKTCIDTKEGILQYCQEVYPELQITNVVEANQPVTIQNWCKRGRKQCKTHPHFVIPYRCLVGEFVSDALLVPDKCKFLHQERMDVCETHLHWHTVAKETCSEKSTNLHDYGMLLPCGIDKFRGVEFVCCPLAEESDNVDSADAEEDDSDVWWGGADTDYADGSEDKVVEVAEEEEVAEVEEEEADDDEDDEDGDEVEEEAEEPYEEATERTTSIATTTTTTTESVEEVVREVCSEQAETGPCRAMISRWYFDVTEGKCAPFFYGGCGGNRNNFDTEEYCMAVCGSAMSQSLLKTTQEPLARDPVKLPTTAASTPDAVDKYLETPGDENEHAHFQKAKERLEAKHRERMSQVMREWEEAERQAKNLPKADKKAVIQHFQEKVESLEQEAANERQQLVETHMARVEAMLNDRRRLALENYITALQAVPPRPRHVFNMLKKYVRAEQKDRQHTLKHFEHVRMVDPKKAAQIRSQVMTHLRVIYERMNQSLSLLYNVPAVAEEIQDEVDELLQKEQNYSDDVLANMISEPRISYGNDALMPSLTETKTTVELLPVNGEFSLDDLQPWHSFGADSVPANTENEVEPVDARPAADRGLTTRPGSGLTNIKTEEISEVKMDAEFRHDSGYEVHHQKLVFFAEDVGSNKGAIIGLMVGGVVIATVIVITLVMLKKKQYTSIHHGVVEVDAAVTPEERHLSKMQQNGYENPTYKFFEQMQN"}, "[2]": {"molecular_target": "Aβ42 (aggregation state not stated at the place of use) (UniProt P05067)", "sequence (P05067 whole entry, looked up)": "as the sequence (P05067 whole entry, looked up, tested part not stated) above"}}}
{"substance": "mouse CypD, endogenous, in brain mitochondria and cultured cortical neurons of nonTg and Tg mAPP mice", "values": [{"measurement": "cytochrome c release into the supernatant from isolated mitochondria treated with Aβ", "setting": "[1]", "result": "increased levels of cytochrome c release into the supernatant in nonTg-derived mitochondria treated with Aβ"}, {"measurement": "Aβ-mediated swelling of isolated cortical mitochondria, diminished in mitochondria lacking CypD, Aβ 1.6 µM", "setting": "[2]", "result": "˜60%"}]}
